This assay addresses amino terminal enhancer of Split (AES), HA tagged (human) (UniProt Q08117).
UniProt Q08117, sequence (Q08117 whole entry): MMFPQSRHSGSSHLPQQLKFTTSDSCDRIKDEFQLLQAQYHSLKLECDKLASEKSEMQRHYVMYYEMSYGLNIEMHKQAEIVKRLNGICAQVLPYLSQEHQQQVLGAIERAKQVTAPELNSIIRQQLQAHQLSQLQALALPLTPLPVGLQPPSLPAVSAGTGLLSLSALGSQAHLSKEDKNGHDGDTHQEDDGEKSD

Consider “GFP-LRP6-ICD-myc-NLS (wild type LRP6-ICD with a nuclear localization signal) (domain or fragment)”, for which the repression of AES mediated TOP (TOPflash, TCF/LEF-1 luciferase reporter) transcription in HEK 293T cells co-transfected with AES-HA and GFP-LRP6-ICD-NLS, 24 hrs worked out at 138%.

The values above are taken from publication PMC2911377.
